Columns and labels:
human ACTH 1-39 [1] = target: T1, human ACTH 1-39 (human, not fully specified; N-terminal biotin in the ELISA and HTRF binding assays (p-1487, p-1488); 125I on Tyr23 in Example 9 (p-1542); unlabelled in SPR. Letters unchanged.); experiment: cell-based or functional assay
T1 peptide: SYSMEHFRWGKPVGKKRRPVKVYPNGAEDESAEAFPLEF

human ACTH 1-39 [2] = target: T1, human ACTH 1-39; experiment: cell-based or functional assay
human ACTH 1-39 [3] = target: T1, human ACTH 1-39; experiment: cell-based or functional assay
human ACTH 1-39 [4] = target: T1, human ACTH 1-39; experiment: SPR (ProteOn XPR36), antibody immobilized
Method: (§1) Antibody was immobilized to the surface of general amine coupling (GLC or GLM) Chips (Bio-Rad). […] Surfaces were regenerated between analyte queries using 10 mM glycine at pH 2.0.

human ACTH 1-39 [5] = target: T1, human ACTH 1-39; experiment: cell-based or functional assay
ACTH 1-24 = target: T2, ACTH 1-24 (human); experiment: cell-based or functional assay
T2 peptide: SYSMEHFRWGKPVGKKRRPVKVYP

[6] = target: T3, human alpha-MSH (ACTH 1-13) (human, not fully specified; ends and bridges not checked); experiment: SPR (ProteOn XPR36), antibody immobilized
T3 peptide: Ac-SYSMEHFRWGKPV-NH2
Method: as §1

B1: Ab1 (antibody, V domains shown)
VH: QSVKESGGRLVTPGTPLTLTCTVSGFSLSNYDMIWVRQAPGKGLESIGMIYDDGDTYYASWAKGRFTISKTSTTVDLKIISPTTEDTATYFCVKGVSNHWGPGTLVTVSS
VL: DVVMTQTPASVEAAVGGTVTIKCQASQSISSYLAWYQQKPGQPPKLLIYSASTLASGVPSRFKGRGSGTEFTLTISDLECADAATYYCQSYDGSSGSSYGVGFGGGTEVVVKR
notes: Full-length rabbit/human chimeric antibody, HEK-293
IC50, ACTH-induced cAMP, MC3R cells (human ACTH 1-39 [1]): 101 nM | IC50, ACTH-induced cAMP, MC4R cells (human ACTH 1-39 [1]): 56.4 nM | IC50, ACTH-induced cAMP, MC5R cells (human ACTH 1-39 [1]): 1100 nM | IC50, ACTH-induced cAMP reporter, MC1R cells (human ACTH 1-39 [2]): 2.38 nM | IC50, ACTH-induced cortisol, Y1 cells (human ACTH 1-39 [3]): 2.36 nM | kon (human ACTH 1-39 [4]): 1e+06 M⁻¹ s⁻¹ | IC50, ACTH-induced cAMP, MC2R cells (human ACTH 1-39 [5]): 0.14 nM

B2: Ab2 (antibody, V domains shown)
VH: QSVEESGGRLVTPGTPLTLTCTVSGFSLSKYDMIWVRQAPGKGLESIGIIYDDGDTYYASWAKGRFTISQTSTTVDLKIISPTTEDTATYFCVKGVSNIWGQGTLVTVSS
VL: DVVMTQTPASVEAAVGGTVTIKCQASQSISNYLAWYQQKTGQPPKLLIYSASTLASGVPSRFKGSGSGTEFTLTISDLECADAATYYCQSYEGSSSSSYGVGFGGGTEVVVKR
IC50, ACTH-induced cAMP, MC3R cells (human ACTH 1-39 [1]): 79 nM | IC50, ACTH-induced cAMP, MC4R cells (human ACTH 1-39 [1]): 54.5 nM | IC50, ACTH-induced cAMP, MC5R cells (human ACTH 1-39 [1]): 1100 nM | IC50, ACTH-induced cAMP reporter, MC1R cells (human ACTH 1-39 [2]): 3.62 nM | IC50, ACTH 1-24 induced cAMP, MC2R cells (ACTH 1-24): 1.3 nM | IC50, ACTH-induced cAMP, MC2R cells (human ACTH 1-39 [5]): 0.25 nM

B3: Ab11 (antibody, V domains shown)
VH: QSLEESGGRLVTPGTSLTLTCTASGFSLSAYDILWVRQAPGKGLESIGMMYDDGDTYYATWAKGRFIISRTSTTMDLKIISPTTEDTATYFCVKGVSNIWGQGTLVTVSS
VL: DIVMTQIPASVEAAVGGTVTIKCQASQSIDSSLAWYQQKPGQPPKLLIYSASTLASGVPSRFKGSGSGTEFTLTIGDLECADAATYYCQSYDGSSSSYYGIGFGGGTEVVVKR
IC50, ACTH-induced cAMP, MC3R cells (human ACTH 1-39 [1]): 108 nM | IC50, ACTH-induced cAMP, MC4R cells (human ACTH 1-39 [1]): 49.4 nM | IC50, ACTH-induced cAMP, MC5R cells (human ACTH 1-39 [1]): 4200 nM | IC50, ACTH-induced cAMP reporter, MC1R cells (human ACTH 1-39 [2]): 1.49 nM | IC50, ACTH-induced cortisol, Y1 cells (human ACTH 1-39 [3]): 1.53 nM | IC50, ACTH-induced cAMP, MC2R cells (human ACTH 1-39 [5]): 0.03 nM

B4: Ab12 (antibody, V domains shown)
VH: QSVEESGGRLVTPGTPLTLTCTVSGSSLSDYDMIWVRQAPGKGLESIGIIYDDGDTYYATWAKGRFTISKTSTTVDLRIISPTTEDTATYFCVKGVSNMWGPGTLVTVSS
VL: DVVMTQTPSSVSAAVGGTVTIKCQASQSIGSSLAWYQQKPGQRPKLLIYAASTLASGVPSRFKGSGSGTEFTLTISDLECADAATYYCQSYDGSSSSSYGVGFGGGTEVVVKR
IC50, ACTH-induced cAMP reporter, MC1R cells (human ACTH 1-39 [2]): 1.66 nM | IC50, ACTH-induced cortisol, Y1 cells (human ACTH 1-39 [3]): 2.68 nM | IC50, ACTH-induced cAMP, MC2R cells (human ACTH 1-39 [5]): 0.05 nM

B5: Ab3 (antibody, V domains shown)
VH: QSLEESGGRLVTPGTPLTLTCTVSGSSLSNFDMIWVRQAPGKGLESIGIIYDFGSTYYASWAKGRFTISRTSSTTVDLKIISPTIEDTATYFCVKGVSNIWGQGTLVTVSS
VL: DVVMTQTPASVEAAVGGTVTIKCQASEDISSNLAWYQQKLGQPPKLLIYSASTLASGVPSRFKGSGSGTEFTLAISDLECADAATYYCQSYDGSSSSSYGIGFGGGTEVVVKR
IC50, ACTH-induced cAMP, MC3R cells (human ACTH 1-39 [1]): 58.7 nM | IC50, ACTH-induced cAMP, MC4R cells (human ACTH 1-39 [1]): 54.2 nM | IC50, ACTH-induced cAMP, MC5R cells (human ACTH 1-39 [1]): 1100 nM | IC50, ACTH-induced cAMP reporter, MC1R cells (human ACTH 1-39 [2]): 4.12 nM | IC50, ACTH 1-24 induced cAMP, MC2R cells (ACTH 1-24): 0.8 nM | IC50, ACTH-induced cortisol, Y1 cells (human ACTH 1-39 [3]): 7.72 nM | IC50, ACTH-induced cAMP, MC2R cells (human ACTH 1-39 [5]): 0.29 nM

B6: Ab7 (antibody, V domains shown)
VH: QSVEESGGRLVTPGTPLTLTCTVSGFSLSSYAMSWVRQAPGEGLEWIGIISDSGSTYYASWAKGRFTISKTSTTVDLRITSPTTEDTATYFCAREPEYGYDDYGDWVSDLWGQGTLVTVSS
VL: DIVMTQTPASVEAAVGGTVTIKCQASQSISDYLSWYQQKPGQPPKLLIYRASTLASGVPSRFKGSGSGTQFTLTISDLECADAATYYCQSYYYSSSITYRNAFGGGTEVVVKR
notes: as for B1
IC50, ACTH-induced cAMP, MC3R cells (human ACTH 1-39 [1]): 64.2 nM | IC50, ACTH-induced cAMP, MC4R cells (human ACTH 1-39 [1]): 49.7 nM | IC50, ACTH-induced cAMP, MC5R cells (human ACTH 1-39 [1]): 1100 nM | IC50, ACTH-induced cAMP reporter, MC1R cells (human ACTH 1-39 [2]): 1.29 nM | IC50, ACTH-induced cortisol, Y1 cells (human ACTH 1-39 [3]): 2.49 nM | kon [6]: 130000 M⁻¹ s⁻¹ | IC50, ACTH-induced cAMP, MC2R cells (human ACTH 1-39 [5]): 0.09 nM

B7: Ab5 (antibody, V domains shown)
VH: QSVEESGGRLVTPGTPLTLTCTVSGFSLSSYAMSWVRQAPGEGLEWIGIISDSGSTYYASWAKGRFTISKTSTTVDLKITSPTTEDTATYFCAREPEYGYDDYGDWVSDLWGQGTLVTVSS
VL: DIVMTQTPASVSEPVGGTVTIKCQASQSISSYLSWYQQKPGQPPKLLIYRASTLASGVPSRFKGSGSGTQFTLTISDLECADAATYYCQSYYYSSSITYRNAFGGGTEVVVKR
IC50, ACTH-induced cAMP, MC3R cells (human ACTH 1-39 [1]): 58.1 nM | IC50, ACTH-induced cAMP, MC4R cells (human ACTH 1-39 [1]): 43.4 nM | IC50, ACTH-induced cAMP, MC5R cells (human ACTH 1-39 [1]): 1000 nM | IC50, ACTH-induced cAMP reporter, MC1R cells (human ACTH 1-39 [2]): 1.96 nM | IC50, ACTH-induced cortisol, Y1 cells (human ACTH 1-39 [3]): 3.49 nM | IC50, ACTH-induced cAMP, MC2R cells (human ACTH 1-39 [5]): 0.11 nM

B8: Ab9 (antibody, V domains shown)
VH: QSVEESGGRLVTPGTPLTLTCTVSGFSLNSYAMSWVRQAPGEGLEWIGIISDSGRTYYASWAKGRFTISKTSTTVDLKITSPTTEDTATYFCAREPEYGYDDYGDWVSDLWGPGTLVTVSS
VL: DVVMTQTPASVEAAVGGTVTIKCQASQSISSYLSWYQQKPGQPPKLLIYRASTLASGVPSRFKGSGSGTQFTLTISDLECADAATYYCQSYYYSSSITYRNAFGGGTEVVVKR
IC50, ACTH-induced cortisol, Y1 cells (human ACTH 1-39 [3]): 3.47 nM | IC50, ACTH-induced cAMP, MC2R cells (human ACTH 1-39 [5]): 0.12 nM

B9: Ab6 (antibody, V domains shown)
VH: QSVEESGGRLVTPGTPLTLTCTVSGFSLTDYAMSWVRQAPGEGLEWIGIISDSGSTYYASWAKGRFTFSKTSTTVDLRITSPTTEDTATYFCAREPEYGYDEYGDWVSDLWGPGTLVTVSS
VL: DIVMTQTPASVEAAVGGAVTIKCQATQSIGNNLAWYQQKPGQPPKLLIYRASTLASGVPSRFKGSGSGTEFTLTISDLECADAATYYCQSYYYSSSITYHNAFGGGTEVVVKR
IC50, ACTH-induced cAMP, MC3R cells (human ACTH 1-39 [1]): 62.8 nM | IC50, ACTH-induced cAMP, MC4R cells (human ACTH 1-39 [1]): 55.2 nM | IC50, ACTH-induced cAMP, MC5R cells (human ACTH 1-39 [1]): 1000 nM | IC50, ACTH-induced cAMP reporter, MC1R cells (human ACTH 1-39 [2]): 1.04 nM | IC50, ACTH 1-24 induced cAMP, MC2R cells (ACTH 1-24): 0.1 nM | IC50, ACTH-induced cortisol, Y1 cells (human ACTH 1-39 [3]): 1.44 nM | IC50, ACTH-induced cAMP, MC2R cells (human ACTH 1-39 [5]): 0.03 nM

B10: Ab10 (antibody, V domains shown)
VH: QSVEESGGRLVTPGTPLTLTCTVSGFSLSSADMIWVRQAPGKGLESIGMIYDDGDTYYATWAKGRFTISKTSTTVDLKIISPTTEDTATYFCVKGVSSVWGQGTLVTVSS
VL: DVVMTQTPASVEAAVGGTVTINCQASENIYRSLAWYQQKPGQPPKLLIYSASTLASGVPSRFKGSGSGTEFTLTISDLECADAATYYCQSYDGSSSSSYGVGFGGGTEVVVKR
IC50, ACTH-induced cAMP, MC3R cells (human ACTH 1-39 [1]): 133 nM | IC50, ACTH-induced cAMP, MC4R cells (human ACTH 1-39 [1]): 66.3 nM | IC50, ACTH-induced cAMP, MC5R cells (human ACTH 1-39 [1]): 5400 nM | IC50, ACTH-induced cAMP reporter, MC1R cells (human ACTH 1-39 [2]): 2.14 nM | IC50, ACTH-induced cortisol, Y1 cells (human ACTH 1-39 [3]): 5.98 nM | IC50, ACTH-induced cAMP, MC2R cells (human ACTH 1-39 [5]): 0.16 nM

B11: Ab13 (antibody, human IgG1, kappa, N297A, V domains shown)
VH: QQLEESGGGLVKPGGTLTLTCTASGFSFSSGYDICWARQGPGKGLEWIGCIDTGSGNTYYASWAKGRFTMSRTSSTTVTLQVTSLTAADTATYFCAKGISSIWGPGTLVTVSS
VL: DIVMTQTPASVSEPVGGTVTIKCQASQTISSDLAWYQQKPGQPPKLLIYAASKLTSGVSSRFKGGGTGTQFTLTISDLECADAATYYCQTYYDIIDDGCTFGGGTEVVVKR
IC50, ACTH 1-24 induced cAMP, MC2R cells (ACTH 1-24): 1 nM

B12: Ab13.H (antibody, human IgG1, kappa, N297A, V domains shown)
VH: EVQLVESGGGLVQPGGSLRLSCAASGFTVSSGYDICWVRQAPGKGLEWIGCIDTGSGNTYYASSAKGRFTMSRDNSKNTVYLQMNSLRAEDTAVYYCAKGISSIWGQGTLVTVSS
VL: DIQMTQSPSTLSASVGDRVTITCQASQTISSDLAWYQQKPGKAPKLLIYAASKLTSGVPSRFSGSGSGTEFTLTISSLQPDDFATYYCQTYYDIIDDGATFGGGTKVEIKR
IC50, ACTH 1-24 induced cAMP, MC2R cells (ACTH 1-24): 0.3 nM

From patent publication US20260193344A1 (H LUNDBECK A S, published 2026)
